# Laboratory results published in patent US20040038369A1, “Airway-specific trypsin-like enzymes and method of using the same” (priority 2000, published 2004).
# Key:
# [1] = target: EGF antigen on the surface of the NCI-H292 cell membrane (proEGF) (human) (UniProt P01133); assay: flow cytometry on NCI-H292 cells, control IgG1 1 µg, FITC secondary
# [2] = target: EGF antigen on the surface of the NCI-H292 cell membrane (proEGF) (human) (UniProt P01133); assay: flow cytometry on NCI-H292 cells, control IgG1 1 µg, PerCP secondary
# Sequence of EGF antigen on the surface of the NCI-H292 cell membrane (proEGF) (human) (P01133 23-1207): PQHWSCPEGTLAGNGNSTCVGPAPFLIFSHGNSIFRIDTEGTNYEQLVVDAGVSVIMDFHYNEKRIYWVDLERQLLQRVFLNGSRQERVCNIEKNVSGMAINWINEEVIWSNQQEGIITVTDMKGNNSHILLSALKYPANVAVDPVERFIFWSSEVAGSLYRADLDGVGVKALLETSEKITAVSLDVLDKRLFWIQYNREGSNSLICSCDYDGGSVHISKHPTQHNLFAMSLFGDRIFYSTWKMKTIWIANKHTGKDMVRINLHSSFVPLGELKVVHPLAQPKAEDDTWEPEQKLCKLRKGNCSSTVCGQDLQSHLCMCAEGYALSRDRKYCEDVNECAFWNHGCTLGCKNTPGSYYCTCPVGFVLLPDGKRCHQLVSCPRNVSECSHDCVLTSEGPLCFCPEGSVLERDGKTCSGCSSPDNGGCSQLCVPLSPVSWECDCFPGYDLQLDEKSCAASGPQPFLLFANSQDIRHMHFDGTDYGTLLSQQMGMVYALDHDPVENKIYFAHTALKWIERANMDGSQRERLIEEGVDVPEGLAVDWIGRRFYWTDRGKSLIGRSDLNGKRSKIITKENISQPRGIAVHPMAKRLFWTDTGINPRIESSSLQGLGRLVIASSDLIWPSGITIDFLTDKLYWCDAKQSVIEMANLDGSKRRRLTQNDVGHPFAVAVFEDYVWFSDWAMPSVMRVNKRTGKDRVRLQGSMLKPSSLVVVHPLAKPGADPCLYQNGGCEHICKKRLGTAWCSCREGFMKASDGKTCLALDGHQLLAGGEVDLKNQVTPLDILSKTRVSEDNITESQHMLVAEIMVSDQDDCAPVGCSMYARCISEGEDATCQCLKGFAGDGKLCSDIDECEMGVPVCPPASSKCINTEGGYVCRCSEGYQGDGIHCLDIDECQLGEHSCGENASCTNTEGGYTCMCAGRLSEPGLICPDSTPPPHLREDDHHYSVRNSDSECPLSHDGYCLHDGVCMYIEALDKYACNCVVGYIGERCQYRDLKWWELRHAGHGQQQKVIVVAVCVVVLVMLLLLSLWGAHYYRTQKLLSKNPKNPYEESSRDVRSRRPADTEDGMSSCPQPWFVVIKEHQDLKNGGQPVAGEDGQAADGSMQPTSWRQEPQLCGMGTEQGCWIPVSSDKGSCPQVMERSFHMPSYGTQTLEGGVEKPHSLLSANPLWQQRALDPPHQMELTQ
substance,measurement,setting,value
normal mouse IgG1 (produced by R & D Corp.) (antibody),average fluorescence intensity (back ground),[1],4.62
same,average fluorescence intensity (back ground),[2],8.44
